Results reported in article PMC12084609, “Structural insights into small-molecule agonist recognition and activation of complement receptor C3aR” (The EMBO Journal, 2025).
Substitutions are numbered along the chain they refer to. Several values for one entry are separate records, joined by “and”; a condition that tells them apart may be missing. Identical values can stand only once.

Columns and labels:
[1] = target: T1, C3aR H418^7.36A (Homo sapiens, UniProt Q16581, H418A); test: GloSensor-based cAMP assay, C3aR mutant H418A; type: cell-based; details: for cAMP response (% Forskolin): single replicates
T1 construct: expressed in transfected cells; host or cells: HEK293T
T1 sequence (Q16581 1-482 H418A): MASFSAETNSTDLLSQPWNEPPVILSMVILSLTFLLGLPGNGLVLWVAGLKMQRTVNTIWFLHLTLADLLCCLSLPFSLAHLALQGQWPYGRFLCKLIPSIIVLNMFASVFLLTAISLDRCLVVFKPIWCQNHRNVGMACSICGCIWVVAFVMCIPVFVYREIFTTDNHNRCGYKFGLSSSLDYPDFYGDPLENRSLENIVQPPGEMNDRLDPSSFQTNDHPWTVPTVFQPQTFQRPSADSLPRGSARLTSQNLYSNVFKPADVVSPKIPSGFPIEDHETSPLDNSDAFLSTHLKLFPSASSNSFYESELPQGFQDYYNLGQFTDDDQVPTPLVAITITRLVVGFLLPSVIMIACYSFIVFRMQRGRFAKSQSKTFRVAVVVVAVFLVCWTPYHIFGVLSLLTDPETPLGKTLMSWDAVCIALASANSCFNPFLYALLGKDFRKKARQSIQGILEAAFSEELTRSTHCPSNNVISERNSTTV
Experimental: (§1) HEK293T cells were seeded on 6-well plates (NEST) and transfected with pGlosensor™-22F plasmids (Promega) and pcDNA3.1 plasmids encoding C3aR or its mutants an with N-terminal FLAG tag. After 48 h, cells were detached with Accutase solution (Sigma-Aldrich) and washed with PBS, and resuspended in assay buffer (CO2-independent medium with 0.5 mg mL^−1D-luciferin). 100,000–200,000 cells were seeded on 96-well white bottom plates (SPL) and incubated at 37 °C for 45 min followed by 45 min incubation at room temperature. After 90 min of incubation, basal luminescence signals were recorded. In total, 25 μl of test ligand with various concentrations and 1 μM Forskolin (Sigma-Aldrich) were treated to the cells and luminescence signals were measured by Tristar 2 LB 942 multimode reader (Berthold). […] Relative luminescence unit (%) was calculated with the signal of wells treated with vehicle as 0% and the signal of wells treated with 1 μM Forskolin as 100% (DiRaddo et al, [2014]). Nonlinear regression was performed using a three-parameter logistic equation.

[2] = test system: C3aR R161A; details: quoted by Referee #2; ref https://doi.org/10.1038/s41589-023-01339-w; cited from earlier work
[3] = target: T2, C3aR L82^2.64A (Homo sapiens, UniProt Q16581, L82A); test: GloSensor-based cAMP assay, C3aR mutant L82A; type: cell-based; details: for cAMP response (% Forskolin): L822.64A, single replicates
T2 construct: expressed in transfected cells; host or cells: HEK293T
T2 sequence (Q16581 1-482 L82A): T1 sequence (Q16581 1-482 H418A) with L82A, A418H
Experimental: as §1

[4] = target: T3, C3aR L30^1.39A (Homo sapiens, UniProt Q16581, L30A); test: GloSensor-based cAMP assay, C3aR mutant L30A; type: cell-based; details: for cAMP response (% Forskolin): L301.39A, single replicates
T3 construct: expressed in transfected cells; host or cells: HEK293T
T3 sequence (Q16581 1-482 L30A): T1 sequence (Q16581 1-482 H418A) with L30A, A418H
Experimental: as §1

[5] = Dunnett's multiple comparisons test, WT minus mutant

Substance: C3a: anaphylatoxin C3a, natural peptide ligand of C3aR (a 77-amino acid peptide), Sigma-Aldrich
- Mean Diff. of pIC50, WT vs. H418A [1, 5]: 0.008
- cAMP response (% Forskolin) ([1]; H418A, Log[C3a (M)] -7): 25.95 % Forskolin and 18.34 % Forskolin and 14.90 % Forskolin and 10.15 % Forskolin
- cAMP response (% Forskolin) ([1]; H418A, Log[C3a (M)] -8): 26.38 % Forskolin and 19.33 % Forskolin and 14.37 % Forskolin and 9.75 % Forskolin
- cAMP response (% Forskolin) ([1]; H418A, Log[C3a (M)] -9): 37.00 % Forskolin and 39.46 % Forskolin and 38.86 % Forskolin and 18.94 % Forskolin
- cAMP response (% Forskolin) ([1]; H418A, Log[C3a (M)] -10): 73.80 % Forskolin and 84.21 % Forskolin and 84.87 % Forskolin and 53.38 % Forskolin
- cAMP response (% Forskolin) ([1]; H418A, Log[C3a (M)] -11): 92.78 % Forskolin and 94.37 % Forskolin and 96.55 % Forskolin and 91.56 % Forskolin
- cAMP response (% Forskolin) ([1]; H418A, Log[C3a (M)] -12): 97.08 % Forskolin and 98.99 % Forskolin and 94.98 % Forskolin and 97.61 % Forskolin
- ΔpIC50 ± SE of Diff. ([1]; H418^7.36A relative to WT C3aR): -0.008 ± 0.011
- IC50 ([1]; H418^7.36A, dose-response plot, read-out: IC50): 3.34 nM
- pIC50 (Replicate) ([1]; H418^7.36A, individual replicates): 8.55 and 8.43 and 8.42 (2×) and 8.38 and 8.70
- pIC50 ± SEM (Mean) ([1]; H418^7.36A, mean of independent experiments): 8.49
- cAMP response (% Forskolin) ([1]; H4187.36A, Log[C3a (M)] -7): 18.06 % Forskolin and 18.98 % Forskolin and 15.70 % Forskolin and 12.14 % Forskolin and 13.13 % Forskolin and 12.07 % Forskolin and 13.03 % Forskolin
- cAMP response (% Forskolin) ([1]; H4187.36A, Log[C3a (M)] -8): 24.13 % Forskolin and 25.40 % Forskolin and 25.03 % Forskolin and 14.18 % Forskolin and 21.72 % Forskolin and 18.92 % Forskolin and 21.43 % Forskolin
- cAMP response (% Forskolin) ([1]; H4187.36A, Log[C3a (M)] -9): 81.20 % Forskolin and 92.26 % Forskolin and 92.38 % Forskolin and 94.46 % Forskolin and 94.81 % Forskolin and 73.56 % Forskolin and 81.94 % Forskolin
- cAMP response (% Forskolin) ([1]; H4187.36A, Log[C3a (M)] -10): 97.67 % Forskolin and 104.16 % Forskolin and 99.86 % Forskolin and 96.43 % Forskolin and 93.22 % Forskolin and 100.34 % Forskolin and 90.38 % Forskolin
- cAMP response (% Forskolin) ([1]; H4187.36A, Log[C3a (M)] -11): 100.38 % Forskolin and 103.33 % Forskolin and 102.03 % Forskolin and 95.26 % Forskolin and 97.84 % Forskolin and 98.73 % Forskolin and 97.27 % Forskolin
- cAMP response (% Forskolin) ([1]; H4187.36A, Log[C3a (M)] -12): 93.49 % Forskolin and 89.91 % Forskolin and 97.60 % Forskolin and 95.65 % Forskolin and 97.38 % Forskolin and 104.40 % Forskolin and 97.91 % Forskolin
- decrease of potency toward C3aR by R161A [2]: ~ 1000 fold
- Mean Diff. of pIC50, WT vs. L82A [3, 5]: -0.166
- ΔpIC50 ± SE of Diff. ([3]; L82^2.64A relative to WT C3aR): 0.17 ± 0.05
- IC50 ([3]; L82^2.64A, dose-response plot, read-out: IC50): 1.98 nM
- pIC50 (Replicate) ([3]; L82^2.64A, individual replicates): 8.88 and 8.82 and 8.71 and 8.44
- pIC50 ± SEM (Mean) ([3]; L82^2.64A, mean of independent experiments): 8.71 ± 0.10 and 8.71
- cAMP response (% Forskolin) ([3]; Log[C3a (M)] -7): 6.88 % Forskolin and 9.71 % Forskolin and 10.14 % Forskolin and 11.39 % Forskolin
- cAMP response (% Forskolin) ([3]; Log[C3a (M)] -8): 8.74 % Forskolin and 11.60 % Forskolin and 12.67 % Forskolin and 19.68 % Forskolin
- cAMP response (% Forskolin) ([3]; Log[C3a (M)] -9): 57.84 % Forskolin and 63.09 % Forskolin and 70.46 % Forskolin and 87.20 % Forskolin
- cAMP response (% Forskolin) ([3]; Log[C3a (M)] -10): 90.69 % Forskolin and 88.60 % Forskolin and 91.27 % Forskolin and 91.83 % Forskolin
- cAMP response (% Forskolin) ([3]; Log[C3a (M)] -11): 96.32 % Forskolin and 92.63 % Forskolin and 98.10 % Forskolin and 96.40 % Forskolin
- cAMP response (% Forskolin) ([3]; Log[C3a (M)] -12): 96.44 % Forskolin and 101.07 % Forskolin and 97.65 % Forskolin and 97.10 % Forskolin
- Mean Diff. of pIC50, WT vs. L30A [4, 5]: -0.019
- ΔpIC50 ± SE of Diff. ([4]; L30^1.39A relative to WT C3aR): 0.019 ± 0.009
- IC50 ([4]; L30^1.39A, dose-response plot, read-out: IC50): 2.77 nM
- pIC50 (Replicate) ([4]; L30^1.39A, individual replicates): 8.56 and 8.70 and 8.57 and 8.44
- pIC50 ± SEM (Mean) ([4]; L30^1.39A, mean of independent experiments): 8.57 ± 0.05 and 8.57
- cAMP response (% Forskolin) ([4]; Log[C3a (M)] -7): 9.08 % Forskolin and 11.83 % Forskolin and 11.69 % Forskolin and 11.40 % Forskolin
- cAMP response (% Forskolin) ([4]; Log[C3a (M)] -8): 10.54 % Forskolin and 13.47 % Forskolin and 12.71 % Forskolin and 14.92 % Forskolin
- cAMP response (% Forskolin) ([4]; Log[C3a (M)] -9): 79.63 % Forskolin and 73.91 % Forskolin and 80.93 % Forskolin and 94.77 % Forskolin
- cAMP response (% Forskolin) ([4]; Log[C3a (M)] -10): 98.57 % Forskolin and 99.49 % Forskolin and 94.04 % Forskolin and 99.72 % Forskolin
- cAMP response (% Forskolin) ([4]; Log[C3a (M)] -11): 93.76 % Forskolin and 102.28 % Forskolin and 98.92 % Forskolin (2×)
- cAMP response (% Forskolin) ([4]; Log[C3a (M)] -12): 93.05 % Forskolin and 98.36 % Forskolin and 95.43 % Forskolin and 98.17 % Forskolin
